± gives the uncertainty stated by the source.
B1: Cytoplasmic polyadenylation element-binding protein 2, residues 513 to 575; numbered along this chain, Q7Z5Q1 (parent)
chain: KRVEVKPYVLDDQMCDECQGARCGGKFAPFFCANVTCLQYYCEFCWANIHSRAGREFHKPLVK

Variants of: B1
Test: abundance fitness (aPCA) (normalised: wild type 0, dead -1); higher = more abundant; growth selection in yeast, the domain comes from the species named
Conditions: Homo sapiens
Variant KRVEVKPYVLDDQMCDECQGARCGGKFAPFFCANVTCLQYYCEFCWANIHSRAGRENHKPLVK [F57N] has an abundance fitness of 0.134 ± 0.076.
Variant KRVEVKPYVLDDQMCDECQGARCGGKFAPFFCANVTCLQYYCEFCWANIHSRAGREHHKPLVK [F57H] has an abundance fitness of 0.027 ± 0.044.
Work on KRVEVKPYVLDSQMCDECQGARCGGKFAPFFCANVTCLQYYCEFCWANIHSRAGREFHKPLVK [D12S] yielded an abundance fitness of -0.146 ± 0.049.
Work on KRVEVKPYVLDMQMCDECQGARCGGKFAPFFCANVTCLQYYCEFCWANIHSRAGREFHKPLVK [D12M] yielded an abundance fitness of -0.189 ± 0.059.
In the case of KRVEVKPYVLDDQMCDECQGARCGGKFAPFFCANVTCLQYYCEFCWANIHSRAGREFHKMLVK [P60M], the abundance fitness is reported as -0.157 ± 0.064.
KRVDVKPYVLDDQMCDECQGARCGGKFAPFFCANVTCLQYYCEFCWANIHSRAGREFHKPLVK [E4D] showed an abundance fitness of -0.132 ± 0.063.
KRVQVKPYVLDDQMCDECQGARCGGKFAPFFCANVTCLQYYCEFCWANIHSRAGREFHKPLVK [E4Q] gave an abundance fitness of -0.099 ± 0.053.
Work on KRVKVKPYVLDDQMCDECQGARCGGKFAPFFCANVTCLQYYCEFCWANIHSRAGREFHKPLVK [E4K] yielded an abundance fitness of -0.239 ± 0.063.
Variant KRVEVKPYVLDDQMCDECQGARCGGKFAPFFCANVTCLQYYCEFCWANIHSRALREFHKPLVK [G54L] has an abundance fitness of -0.146 ± 0.046.
KRVEVKPYVLDDQMCDECQGARCGGKFAPFFCANVTCLQYYCEFCWANIHSRAEREFHKPLVK [G54E] showed an abundance fitness of -0.065 ± 0.064.
Work on KRIEVKPYVLDDQMCDECQGARCGGKFAPFFCANVTCLQYYCEFCWANIHSRAGREFHKPLVK [V3I] yielded an abundance fitness of -0.041 ± 0.052.
For KRVEVKHYVLDDQMCDECQGARCGGKFAPFFCANVTCLQYYCEFCWANIHSRAGREFHKPLVK [P7H], the abundance fitness was -0.086 ± 0.072.
In the case of KRVEVKPYVLDDQMCDHCQGARCGGKFAPFFCANVTCLQYYCEFCWANIHSRAGREFHKPLVK [E17H], the abundance fitness is reported as 0.018 ± 0.086.
Variant KRVEVKPYVLDDQMCDECQVARCGGKFAPFFCANVTCLQYYCEFCWANIHSRAGREFHKPLVK [G20V] has an abundance fitness of -0.418 ± 0.055.
With KRVEVKPYVLDDQMCDECQGARCGGKFAPFFSANVTCLQYYCEFCWANIHSRAGREFHKPLVK [C32S] the abundance fitness was -0.664 ± 0.06.
In the case of KRVEVKPYVLDDQMCDECQGARCGGKFAPFFYANVTCLQYYCEFCWANIHSRAGREFHKPLVK [C32Y], the abundance fitness is reported as -0.837 ± 0.11.
KRVEVKPYVLDDQMCDECQGARCGGKFAPFFCANVTCLQYYCEFVWANIHSRAGREFHKPLVK [C45V] showed an abundance fitness of -1.32 ± 0.1.
Variant KRVEVKPYVLDDQMCDECQGARCGGKFAPFFCANVTCPQYYCEFCWANIHSRAGREFHKPLVK [L38P] has an abundance fitness of -0.706 ± 0.087.
Work on KRVEVKPYVLDDQWCDECQGARCGGKFAPFFCANVTCLQYYCEFCWANIHSRAGREFHKPLVK [M14W] yielded an abundance fitness of -0.352 ± 0.062.
Variant KRVEVKPYVLDDQMCDECQGARCGGKFAPFFCKNVTCLQYYCEFCWANIHSRAGREFHKPLVK [A33K] has an abundance fitness of -0.147 ± 0.085.
KRVEVKPYVLDDQMCDECQGARCGGKFAPFFCENVTCLQYYCEFCWANIHSRAGREFHKPLVK [A33E] gave an abundance fitness of 0.077 ± 0.046.
Variant KRVEVKPYVLDDQMCDECQGARCGGKFAPFFCHNVTCLQYYCEFCWANIHSRAGREFHKPLVK [A33H] has an abundance fitness of -0.177 ± 0.1.
KRVEVKPYVLDDQMCDECQGARCGGKFAPFFCANVTCLQYYCEFCWANIHSRAGREFHKPLVR [K63R] showed an abundance fitness of -0.105 ± 0.092.
KRVEVKPYVLDDQMCDECQGARCGGKFAPFFCANVTCLQYYGEFCWANIHSRAGREFHKPLVK [C42G] showed an abundance fitness of -0.58 ± 0.08.
KRVEVKPYVLDDQMCDECQGDRCGGKFAPFFCANVTCLQYYCEFCWANIHSRAGREFHKPLVK [A21D] showed an abundance fitness of -0.159 ± 0.068.
KRVEVKPYVLDDQMCDECQGARCGGKFAPFFCANVTCLQYYCEFCWAFIHSRAGREFHKPLVK [N48F] showed an abundance fitness of -0.071 ± 0.047.
With KRVEVKPYVLDDQMCDECQGARCGGKFAPFFCANVTCLQYYCEFCWAHIHSRAGREFHKPLVK [N48H] the abundance fitness was 0.049 ± 0.047.
With KRVEVKPYVLDDQMCDECQGARCGGKFAPFFCANVTCLQYYCEFCWAYIHSRAGREFHKPLVK [N48Y] the abundance fitness was -0.112 ± 0.05.
KRVEVKPYVLDDQMWDECQGARCGGKFAPFFCANVTCLQYYCEFCWANIHSRAGREFHKPLVK [C15W] showed an abundance fitness of -0.759 ± 0.11.
For KRVEVKPYVLDDQMNDECQGARCGGKFAPFFCANVTCLQYYCEFCWANIHSRAGREFHKPLVK [C15N], the abundance fitness was -0.592 ± 0.13.
Work on KRVEVKPYVLDDQMCDECQGARPGGKFAPFFCANVTCLQYYCEFCWANIHSRAGREFHKPLVK [C23P] yielded an abundance fitness of -0.229 ± 0.058.
KRVEVKPYVMDDQMCDECQGARCGGKFAPFFCANVTCLQYYCEFCWANIHSRAGREFHKPLVK [L10M] gave an abundance fitness of 0.037 ± 0.056.
For KRVEVKPYVEDDQMCDECQGARCGGKFAPFFCANVTCLQYYCEFCWANIHSRAGREFHKPLVK [L10E], the abundance fitness was 0.076 ± 0.047.
KRVEVKPYVLDDQMCDECQGARCGGKFAPFFCANVTCLQYYCENCWANIHSRAGREFHKPLVK [F44N] showed an abundance fitness of -0.056 ± 0.055.
Work on KRVEVKPYVLDDQMCDECQGARCGGKFAPFFCANVTCLQYYCEGCWANIHSRAGREFHKPLVK [F44G] yielded an abundance fitness of 0.015 ± 0.039.
Variant KRVEVKPYPLDDQMCDECQGARCGGKFAPFFCANVTCLQYYCEFCWANIHSRAGREFHKPLVK [V9P] has an abundance fitness of -0.055 ± 0.052.
KRVEVKPYVLDDQMCDECQGARCGGKFAPFFCANVTGLQYYCEFCWANIHSRAGREFHKPLVK [C37G] gave an abundance fitness of -0.633 ± 0.056.
In the case of KRVEVKPYVLDDQMCDECQGARCGGKFAPFFCANVTCLQYYCFFCWANIHSRAGREFHKPLVK [E43F], the abundance fitness is reported as -0.298 ± 0.052.
In the case of KRVEVKPYVLDDQMCDECQGARCGGKFAPFFCANVTCLQYYCYFCWANIHSRAGREFHKPLVK [E43Y], the abundance fitness is reported as -0.146 ± 0.058.
In the case of KRVEVKPYVLDDQMCDECQGARCGGKFAPFFCANVTCLQYYCHFCWANIHSRAGREFHKPLVK [E43H], the abundance fitness is reported as -0.079 ± 0.084.
KRVEVKPYVLDDQMCDECQGARCGGKFAPFFCANVTCLQYYCKFCWANIHSRAGREFHKPLVK [E43K] showed an abundance fitness of -0.161 ± 0.064.
For KRVEVKPYVLDDQMCDECQGARCGGKFAPFFCANVTCLQYYCWFCWANIHSRAGREFHKPLVK [E43W], the abundance fitness was -0.136 ± 0.051.
KRVEVKPYVLDDQMCDECQGARCGGKFAPFFCANVTCLQYYCEFCWANIHSIAGREFHKPLVK [R52I] showed an abundance fitness of 0.029 ± 0.072.
